Assay results as given in patent publication US20260176319A1 (KALLYOPE, published 2026).
One block for each binder: values may come before it. Starred links: 1 amine or outer side, 2 acyl side, 3 side chain; linkers in the order of their positions; H or OH if unused. Non-standard residues stand in square brackets, D forms with d. *: point of attachment. Trp(6-Me) = Cc1ccc2c(C[C@H](N)C(=O)O)c[nH]c2c1; Trp(7-Me) = Cc1cccc2c(C[C@H](N)C(=O)O)c[nH]c12; d(γGlu) = O=C(O)[C@@H](CCC(=O)[*:2])N[*:1]; C18 diacid = O=C(O)CCCCCCCCCCCCCCCCC(=O)*; Palmitoyl = CCCCCCCCCCCCCCCC(=O)*; Nle = CCCC[C@H](N)C(=O)O; AEEA = NCCOCCOCC(=O)O; Aib = CC(C)(N)C(=O)O; Sar = CNCC(=O)O

Target: human GRP receptor (human, UniProt P30550 1-384)
Sequence (P30550 whole entry): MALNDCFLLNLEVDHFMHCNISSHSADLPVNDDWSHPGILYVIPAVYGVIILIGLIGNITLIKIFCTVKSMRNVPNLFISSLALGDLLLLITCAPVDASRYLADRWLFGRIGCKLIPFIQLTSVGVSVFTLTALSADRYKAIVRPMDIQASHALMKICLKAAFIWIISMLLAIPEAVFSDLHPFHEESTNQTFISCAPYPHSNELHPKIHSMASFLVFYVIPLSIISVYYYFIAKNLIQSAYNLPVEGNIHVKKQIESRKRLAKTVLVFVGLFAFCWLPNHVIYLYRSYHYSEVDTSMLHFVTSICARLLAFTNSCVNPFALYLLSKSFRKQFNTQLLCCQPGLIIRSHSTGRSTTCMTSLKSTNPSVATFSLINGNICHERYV
Assay: cell-based or functional assay

hIP1 GRPR EC50: 18.2 nM
B1: Peptide 75 (peptide)
peptide: Palmitoyl-[d(γGlu)][AEEA][AEEA]GNHWAV[dA]HL[Nle][Aib]-NH2
SMILES: CCCCCCCCCCCCCCCC(=O)N[C@H](CCC(=O)NCCOCCOCC(=O)NCCOCCOCC(=O)NCC(=O)N[C@@H](CC(N)=O)C(=O)N[C@@H](Cc1c[nH]cn1)C(=O)N[C@@H](Cc1c[nH]c2ccccc12)C(=O)N[C@@H](C)C(=O)N[C@H](C(=O)N[C@H](C)C(=O)N[C@@H](Cc1c[nH]cn1)C(=O)N[C@@H](CC(C)C)C(=O)N[C@@H](CCCC)C(=O)NC(C)(C)C(N)=O)C(C)C)C(=O)O

hIP1 GRPR EC50: 184 nM
B2: Peptide 77 (peptide)
peptide: {C18 diacid}-[d(γGlu)][AEEA][AEEA]GK(Ac)HWAV[dA]HL[Nle][Sar]-NH2
SMILES: CCCC[C@H](NC(=O)[C@H](CC(C)C)NC(=O)[C@H](Cc1c[nH]cn1)NC(=O)[C@@H](C)NC(=O)[C@@H](NC(=O)[C@H](C)NC(=O)[C@H](Cc1c[nH]c2ccccc12)NC(=O)[C@H](Cc1c[nH]cn1)NC(=O)[C@H](CCCCNC(C)=O)NC(=O)CNC(=O)COCCOCCNC(=O)COCCOCCNC(=O)CC[C@@H](NC(=O)CCCCCCCCCCCCCCCCC(=O)O)C(=O)O)C(C)C)C(=O)N(C)CC(N)=O

hIP1 GRPR EC50: 25.5 nM
B3: Peptide 74 (peptide)
peptide: {C18 diacid}-[d(γGlu)][AEEA][AEEA][Aib]NHWAV[dA]HL[Nle]-NH2
SMILES: CCCC[C@H](NC(=O)[C@H](CC(C)C)NC(=O)[C@H](Cc1c[nH]cn1)NC(=O)[C@@H](C)NC(=O)[C@@H](NC(=O)[C@H](C)NC(=O)[C@H](Cc1c[nH]c2ccccc12)NC(=O)[C@H](Cc1c[nH]cn1)NC(=O)[C@H](CC(N)=O)NC(=O)C(C)(C)NC(=O)COCCOCCNC(=O)COCCOCCNC(=O)CC[C@@H](NC(=O)CCCCCCCCCCCCCCCCC(=O)O)C(=O)O)C(C)C)C(N)=O

hIP1 GRPR EC50: 529 nM
B4: Peptide 79 (peptide)
peptide: {C18 diacid}-[d(γGlu)][AEEA][AEEA]GNH[Trp(6-Me)]AV[dA]HL[Nle]-NH2
SMILES: CCCC[C@H](NC(=O)[C@H](CC(C)C)NC(=O)[C@H](Cc1c[nH]cn1)NC(=O)[C@@H](C)NC(=O)[C@@H](NC(=O)[C@H](C)NC(=O)[C@H](Cc1c[nH]c2cc(C)ccc12)NC(=O)[C@H](Cc1c[nH]cn1)NC(=O)[C@H](CC(N)=O)NC(=O)CNC(=O)COCCOCCNC(=O)COCCOCCNC(=O)CC[C@@H](NC(=O)CCCCCCCCCCCCCCCCC(=O)O)C(=O)O)C(C)C)C(N)=O

hIP1 GRPR EC50: 358 nM
B5: Peptide 76 (peptide)
peptide: {C18 diacid}-[d(γGlu)][AEEA][AEEA]GNH[Trp(7-Me)]AV[dA]HL[Nle][Aib]-NH2
SMILES: CCCC[C@H](NC(=O)[C@H](CC(C)C)NC(=O)[C@H](Cc1c[nH]cn1)NC(=O)[C@@H](C)NC(=O)[C@@H](NC(=O)[C@H](C)NC(=O)[C@H](Cc1c[nH]c2c(C)cccc12)NC(=O)[C@H](Cc1c[nH]cn1)NC(=O)[C@H](CC(N)=O)NC(=O)CNC(=O)COCCOCCNC(=O)COCCOCCNC(=O)CC[C@@H](NC(=O)CCCCCCCCCCCCCCCCC(=O)O)C(=O)O)C(C)C)C(=O)NC(C)(C)C(N)=O

hIP1 GRPR EC50: 7.5 nM
B6: Peptide 5 (peptide)
peptide: EXXGNHWAVGHLM
modifications: Octadecanedioyl-D-γGlu-OEG-OEG-Gly-Asn-His-Trp-Ala-Val-Gly-His-Leu-Met-NH2

hIP1 GRPR EC50: 14 nM
B7: Peptide 78 (peptide)
peptide: {C18 diacid}-[d(γGlu)][AEEA][AEEA][AEEA][AEEA]GNH[Trp(7-Me)]AV[dA]HL-NH2
SMILES: Cc1cccc2c(C[C@H](NC(=O)[C@H](Cc3c[nH]cn3)NC(=O)[C@H](CC(N)=O)NC(=O)CNC(=O)COCCOCCNC(=O)COCCOCCNC(=O)COCCOCCNC(=O)COCCOCCNC(=O)CC[C@@H](NC(=O)CCCCCCCCCCCCCCCCC(=O)O)C(=O)O)C(=O)N[C@@H](C)C(=O)N[C@H](C(=O)N[C@H](C)C(=O)N[C@@H](Cc3c[nH]cn3)C(=O)N[C@@H](CC(C)C)C(N)=O)C(C)C)c[nH]c12
